Experimental data reported in patent US20260209362A1 (VIB VZW, published 2026).

T1: human IL-12Rβ2 expressed on cells (human, UniProt Q99665 24-862)
T1 sequence: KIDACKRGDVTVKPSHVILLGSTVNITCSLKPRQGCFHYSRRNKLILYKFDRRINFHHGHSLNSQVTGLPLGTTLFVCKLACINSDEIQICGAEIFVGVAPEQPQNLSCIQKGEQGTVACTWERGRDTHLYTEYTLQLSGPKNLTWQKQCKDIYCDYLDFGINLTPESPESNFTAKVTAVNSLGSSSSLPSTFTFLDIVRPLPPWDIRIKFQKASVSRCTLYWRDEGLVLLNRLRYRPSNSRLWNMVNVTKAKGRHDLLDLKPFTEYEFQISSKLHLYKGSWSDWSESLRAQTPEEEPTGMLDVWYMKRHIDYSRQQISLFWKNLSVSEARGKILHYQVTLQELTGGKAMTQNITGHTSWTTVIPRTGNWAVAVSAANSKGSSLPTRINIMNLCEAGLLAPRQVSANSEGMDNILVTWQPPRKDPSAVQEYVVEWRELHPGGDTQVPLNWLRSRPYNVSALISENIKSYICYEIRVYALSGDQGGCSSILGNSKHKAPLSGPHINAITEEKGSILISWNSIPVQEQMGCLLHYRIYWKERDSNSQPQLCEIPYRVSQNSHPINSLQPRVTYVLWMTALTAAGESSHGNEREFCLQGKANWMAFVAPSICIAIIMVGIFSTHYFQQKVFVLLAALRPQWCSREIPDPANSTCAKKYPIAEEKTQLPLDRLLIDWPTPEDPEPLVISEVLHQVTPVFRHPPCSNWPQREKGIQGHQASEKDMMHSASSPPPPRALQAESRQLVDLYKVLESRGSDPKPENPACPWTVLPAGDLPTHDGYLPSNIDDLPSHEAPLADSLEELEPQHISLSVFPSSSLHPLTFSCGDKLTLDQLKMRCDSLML

T2: human IL-12Rβ2 (human, UniProt Q99665 24-862)
T2 construct: Expressed on HEK293T cells transiently transfected with a pcDNA3 plasmid (Genscript clone OHu21785); also called hIL-12RB2; IL-12 receptor β2 subunit
T2 sequence: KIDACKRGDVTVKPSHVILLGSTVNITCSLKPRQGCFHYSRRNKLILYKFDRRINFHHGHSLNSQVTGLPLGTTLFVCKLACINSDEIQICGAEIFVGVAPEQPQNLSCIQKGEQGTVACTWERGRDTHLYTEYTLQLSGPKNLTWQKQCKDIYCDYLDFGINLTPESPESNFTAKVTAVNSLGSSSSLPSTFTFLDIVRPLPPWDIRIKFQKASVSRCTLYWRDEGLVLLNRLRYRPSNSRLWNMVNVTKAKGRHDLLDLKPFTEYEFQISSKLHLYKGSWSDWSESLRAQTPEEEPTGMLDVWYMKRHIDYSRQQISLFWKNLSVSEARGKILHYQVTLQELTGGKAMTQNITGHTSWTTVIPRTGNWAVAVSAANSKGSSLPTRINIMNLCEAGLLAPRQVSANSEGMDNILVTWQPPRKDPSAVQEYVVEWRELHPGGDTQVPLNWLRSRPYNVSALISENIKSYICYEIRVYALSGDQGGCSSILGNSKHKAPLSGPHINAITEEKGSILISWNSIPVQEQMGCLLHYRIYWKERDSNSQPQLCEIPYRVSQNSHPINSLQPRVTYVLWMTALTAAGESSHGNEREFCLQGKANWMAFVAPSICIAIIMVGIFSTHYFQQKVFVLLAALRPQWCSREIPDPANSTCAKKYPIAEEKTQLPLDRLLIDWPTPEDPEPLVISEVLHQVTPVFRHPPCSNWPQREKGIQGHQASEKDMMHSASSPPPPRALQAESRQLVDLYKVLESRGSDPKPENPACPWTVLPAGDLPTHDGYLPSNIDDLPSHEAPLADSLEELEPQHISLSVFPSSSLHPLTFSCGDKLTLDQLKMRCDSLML

T3: mouse IL-12Rβ2 (mouse, UniProt P97378 24-874)
T3 construct: Expressed on HEK293T cells transiently transfected with a pcDNA3 plasmid (Genscript clone OMu01776); also called mIL-12RB2; NP_032380.1
T3 sequence: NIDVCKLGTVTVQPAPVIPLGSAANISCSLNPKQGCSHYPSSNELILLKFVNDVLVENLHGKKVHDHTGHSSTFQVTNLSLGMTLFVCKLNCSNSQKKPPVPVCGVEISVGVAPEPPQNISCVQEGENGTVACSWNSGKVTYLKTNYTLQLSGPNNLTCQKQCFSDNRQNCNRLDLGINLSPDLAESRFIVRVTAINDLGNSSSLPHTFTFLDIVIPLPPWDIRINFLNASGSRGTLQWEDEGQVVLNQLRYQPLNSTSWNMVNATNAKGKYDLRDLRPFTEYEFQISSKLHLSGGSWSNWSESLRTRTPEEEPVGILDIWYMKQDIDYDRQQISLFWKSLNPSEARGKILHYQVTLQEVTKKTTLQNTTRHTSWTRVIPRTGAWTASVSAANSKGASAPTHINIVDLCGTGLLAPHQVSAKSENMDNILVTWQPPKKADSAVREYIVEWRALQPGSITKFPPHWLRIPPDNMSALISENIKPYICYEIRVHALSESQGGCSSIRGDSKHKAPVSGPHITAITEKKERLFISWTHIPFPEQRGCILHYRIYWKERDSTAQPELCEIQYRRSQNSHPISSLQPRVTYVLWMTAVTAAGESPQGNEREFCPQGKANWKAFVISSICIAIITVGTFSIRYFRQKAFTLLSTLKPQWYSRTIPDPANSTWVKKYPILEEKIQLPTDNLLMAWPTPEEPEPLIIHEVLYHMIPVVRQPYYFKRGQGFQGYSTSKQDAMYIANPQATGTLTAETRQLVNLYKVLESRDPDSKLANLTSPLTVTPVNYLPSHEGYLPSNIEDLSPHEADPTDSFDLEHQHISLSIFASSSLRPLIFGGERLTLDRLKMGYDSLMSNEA


Assays:
[1] = molecular target: T1, human IL-12Rβ2 expressed on cells; assay: cell-based or functional assay
human IL-12Rβ2 = molecular target: T2, human IL-12Rβ2; assay: flow cytometry, P.E. on transfected HEK293T cells
mouse IL-12Rβ2 = molecular target: T3, mouse IL-12Rβ2; assay: flow cytometry, P.E. on transfected HEK293T cells

Row | Binder | % Specific Cell Lysis at 0.025 ug/mL [1] | % Specific Cell Lysis at 0.5 ug/mL [1] | % Specific Cell Lysis at 10 ug/mL [1] | % Specific Cell Lysis at 0.00125 ug/mL [1] | % cells bound (human IL-12Rβ2) | dMFI (human IL-12Rβ2) | % cells bound (mouse IL-12Rβ2) | dMFI (mouse IL-12Rβ2)
1 | anti-IL-12Rβ2 VHH clone 3CAHM11 (VHH, not shown: small tags and cut ends, periplasmic extract) VHH: QVQLQESGGGLVQAGGSLRLSCAASGRTFNNYAMAWFRQAPGKEREFIAAITRSDTTLYIDSVKGRFTISRDNAKNTVALQMNSLKPEDTAVYYCAAGMPYSYSDYPRDSKYDYWGRGTQVTVSS | – | – | – | – | 37.6% | 784 | 7.51% | 294
2 | anti-IL-12Rβ2-VHH-FcDE clone 21050 (Fc fusion) QVQLQESGGGLVQAGGSLRLSCAASGRTFNNYAMAWFRQAPGKEREFIAAITRSDTTLYIDSVKGRFTISRDNAKNTVALQMNSLKPEDTAVYYCAAGMPYSYSDYPRDSKYDYWGRGTQVTVSSAPELLGGPDVFLFPPKPKDTLMISRTPEVTCVVVDVSHEDPEVKFNWYVDGVEVHNAKTKPREEQYNSTYRVVSVLTVLHQDWLNGKEYKCKVSNKALPAPEEKTISKAKGQPREPQVYTLPPSRDELTKNQVSLTCLVKGFYPSDIAVEWESNGQPENNYKTTPPVLDSDGSFFLYSKLTVDKSRWQQGNVFSCSVMHEALHNHYTQKSLSLSPGK | 50.1% | 61.3% | 63.7% | 42.4% | – | – | – | –
3 | anti-IL-12Rβ2 VHH clone 3CRHM85 (VHH, not shown: small tags and cut ends, periplasmic extract; also called 21061) VHH: QVQLQESGGGLVQPGGSLRLSCAASRRTFSKHAMAWFRQAPGKEREFVAVVRWSGIITYYADSVKGRFTISRDDAKNTVYLQMDSLKPEDTAVYYCAAGDYRGNGYYVPGMYDYWGQGTQVTVSS | – | – | – | – | 31.2% | 676 | 0.74% | 157
4 | anti-IL-12Rβ2 VHH clone 3CRHM20 (VHH, not shown: small tags and cut ends, periplasmic extract; also called 21055) VHH: QVQLQESGGGLVQAGGSLRLSCAASGRTFSKSTMGWFRQTPGKEREFVAAITWTDTEVYANSVKDRFTISRDNAKNTFYLQMHSLKLEDTAVYYCAGDRYGSSRDSVFSSPTNYPYWGQGTQVTVSS | – | – | – | – | 28.7% | 556 | 0.18% | 86

Next, values leading:

Row | % Specific Cell Lysis at 0.025 ug/mL [1] | % Specific Cell Lysis at 0.5 ug/mL [1] | % Specific Cell Lysis at 10 ug/mL [1] | % Specific Cell Lysis at 0.00125 ug/mL [1] | % cells bound (human IL-12Rβ2) | dMFI (human IL-12Rβ2) | % cells bound (mouse IL-12Rβ2) | dMFI (mouse IL-12Rβ2) | Binder
5 | 63.9% | 73.5% | 75.5% | – | – | – | – | – | anti-IL-12Rβ2-VHH-FcDE clone 21060 (Fc fusion) QVQLQESGGGLVQAGGSLSLSCAASGSAFRLNFMGWYRQAPGKQRELVAAINSGGTEIYHDSVKGRFTISRDNADSTVWLQMNSLKPDDTAVYYCAADRGISWSKLAGGMDYWGKGTQVTVSSAPELLGGPDVFLFPPKPKDTLMISRTPEVTCVVVDVSHEDPEVKFNWYVDGVEVHNAKTKPREEQYNSTYRVVSVLTVLHQDWLNGKEYKCKVSNKALPAPEEKTISKAKGQPREPQVYTLPPSRDELTKNQVSLTCLVKGFYPSDIAVEWESNGQPENNYKTTPPVLDSDGSFFLYSKLTVDKSRWQQGNVFSCSVMHEALHNHYTQKSLSLSPGK
6 | 51.6% | 64.7% | 73.3% | 46.5% | – | – | – | – | anti-IL-12Rβ2-VHH-FcDE clone 21053 (Fc fusion) QVQLQESGGGLVQAGGSLRLSCAASGRTFSNYAMAWFRQAPGTEREFVAGLSGSGGDTEFYDDSVKGRFAISRDSAKNTVWLQMNSLKPEDTAVYYCAAATHVVVHYGLVRRRGTYDYWGQGTQVTVSSAPELLGGPDVFLFPPKPKDTLMISRTPEVTCVVVDVSHEDPEVKFNWYVDGVEVHNAKTKPREEQYNSTYRVVSVLTVLHQDWLNGKEYKCKVSNKALPAPEEKTISKAKGQPREPQVYTLPPSRDELTKNQVSLTCLVKGFYPSDIAVEWESNGQPENNYKTTPPVLDSDGSFFLYSKLTVDKSRWQQGNVFSCSVMHEALHNHYTQKSLSLSPGK
7 | – | 60.9% | 69.5% | 52.7% | – | – | – | – | anti-IL-12Rβ2-VHH-FcDE clone 21062 (Fc fusion) QVQLQESGGGLVQPGGSLRLSCAASGISSSRLHVGWFRQSPGKEREFVAAISLSGGTQAYTDSVKGRFTISGDNVKNTAYLQMNSLRPEDTAVYYCAARERFIWTWSDLTYDYWGQGTQVTVSSAPELLGGPDVFLFPPKPKDTLMISRTPEVTCVVVDVSHEDPEVKFNWYVDGVEVHNAKTKPREEQYNSTYRVVSVLTVLHQDWLNGKEYKCKVSNKALPAPEEKTISKAKGQPREPQVYTLPPSRDELTKNQVSLTCLVKGFYPSDIAVEWESNGQPENNYKTTPPVLDSDGSFFLYSKLTVDKSRWQQGNVFSCSVMHEALHNHYTQKSLSLSPGK
